Literature values, collected in patent US20080089848A1, “INTRATHECAL INJECTION OF MICROBUBBLES” (priority 2006, published 2008).

Experiments:
stroke = details: intracisternal injection into the cisterna magna, rats
[1] = infusion of tPA and microbubbles

B1: BMP-7: bone morphogenetic protein (protein, UniProt P18075 293-431, looked up)
Bone morphogenetic protein 7: STGSKQRSQNRSKTPKNQEALRMANVAENSSSDQRQACKKHELYVSFRDLGWQDWIIAPEGYAAYYCEGECAFPLNSYMNATNHAIVQTLVHFINPETVPKPCCAPTQLNAISVLYFDDSSNVILKKYRNMVVRACGCH
- functional recovery of neurons after stroke (stroke): promotes functional recovery

B2: tPA: thrombolytic agent (protein, UniProt P00750 36-562, looked up)
Tissue-type plasminogen …: SYQVICRDEKTQMIYQQHQSWLRPVLRSNRVEYCWCNSGRAQCHSVPVKSCSEPRCFNGGTCQQALYFSDFVCQCPEGFAGKCCEIDTRATCYEDQGISYRGTWSTAESGAECTNWNSSALAQKPYSGRRPDAIRLGLGNHNYCRNPDRDSKPWCYVFKAGKYSSEFCSTPACSEGNSDCYFGNGSAYRGTHSLTESGASCLPWNSMILIGKVYTAQNPSAQALGLGKHNYCRNPDGDAKPWCHVLKNRRLTWEYCDVPSCSTCGLRQYSQPQFRIKGGLFADIASHPWQAAIFAKHRRSPGERFLCGGILISSCWILSAAHCFQERFPPHHLTVILGRTYRVVPGEEEQKFEVEKYIVHKEFDDDTYDNDIALLQLKSDSSRCAQESSVVRTVCLPPADLQLPDWTECELSGYGKHEALSPFYSERLKEAHVRLYPSSRCTSQHLLNRTVTDNMLCAGDTRSGGPQANLHDACQGDSGGPLVCLNDGRMTLVGIISWGLGCGQKDVPGVYTKVTNYLDWIRDNMRP
- clot lysis [1]: accelerate clot lysis
